B1: HDV Ribozyme (parent)
chain: GGCCGGCAUGGUCCCAGCCUCCUCGCUGGCGCCGGCUGGGCAACAUUCCGAGGGGACCGUCCCCUCGGUAAUGGCGAAUGGGACCCA

In this data set the parent is B1. Nature of the data set: self-cleavage, relative activity (ratio to wild type); higher = more cleavage; co-transcriptional.
G17C G59U: the self-cleavage stood at 0.342.

On to G17A U65C, for which the self-cleavage was found to be 0.671.

In the case of G17A U65G, the self-cleavage stood at 0.773.

Consider G17A U65A, for which the self-cleavage is 0.752.

For the variant A16U G52U, the self-cleavage worked out at 0.863.

As to A16U G52A, the self-cleavage amounted to 0.7.

Consider G17C A56G, for which the self-cleavage was found to be 0.145.

With G17A C36U, the self-cleavage came out at 0.272.

As to G17C C36G, the self-cleavage came to 0.122.

For the variant G17C C36A, the self-cleavage came out at 0.0361.

In the case of G17C C36U, the self-cleavage turned out to be 0.0339.

On to G17U C21U, for which the self-cleavage was determined as 0.13.

Consider G17C G39C, for which the self-cleavage amounted to 0.0462.

On to G17C G39A, for which the self-cleavage came to 0.113.

In the case of G17A A87G, the self-cleavage was 0.745.

For G17A A87C, the self-cleavage was 0.716.

For the variant G17A C41G, the self-cleavage turned out to be 0.0997.

Take G17C C57A: the self-cleavage was 0.437.

Consider G17C U27A, for which the self-cleavage is 0.222.

As for G17A G54U, the self-cleavage amounted to 0.554.

Regarding G17U, the self-cleavage was determined as 0.548.

On to G17C, for which the self-cleavage worked out at 0.338.

Regarding G17A, the self-cleavage was 0.718.

Turning to G17A C86G, the self-cleavage stood at 0.591.

On to G17C A70G, for which the self-cleavage is 0.346.

On to A16U C64G, for which the self-cleavage stood at 0.782.

With A16U C66G, the self-cleavage was 1.26.

In the case of A16U C66A, the self-cleavage stood at 0.831.

For G17A U20A, the self-cleavage was found to be 0.253.

For the variant G17A U60C, the self-cleavage worked out at 0.522.

As for G17C C33G, the self-cleavage came out at 0.

Turning to G17C C33A, the self-cleavage amounted to 0.0437.

For the variant A16U C75U, the self-cleavage is 0.189.

As for A16U C75A, the self-cleavage was 0.111.

As for G17A G28A, the self-cleavage is 0.

For G17U A43U, the self-cleavage amounted to 0.185.

Regarding G17U A43C, the self-cleavage was 0.203.

Turning to A16U G39C, the self-cleavage is 0.185.

Regarding G17U C19U, the self-cleavage amounted to 0.199.

Regarding G17U C19G, the self-cleavage worked out at 0.

With G17U C19A, the self-cleavage was 0.166.

In the case of G17C U79C, the self-cleavage came out at 0.427.

G17C U79A: the self-cleavage came out at 0.26.

In the case of G17C U79G, the self-cleavage amounted to 0.128.

In the case of G17C G68A, the self-cleavage stood at 0.297.

Regarding G17C G68C, the self-cleavage worked out at 0.227.

As to G17C G68U, the self-cleavage was determined as 0.425.

In the case of G17C U72C, the self-cleavage came to 0.

Turning to G17C U72A, the self-cleavage came out at 0.

As for G17C U72G, the self-cleavage was 0.161.

Consider A16U G31A, for which the self-cleavage was 0.409.

In the case of A16U G31U, the self-cleavage came out at 0.225.

In the case of G17C G55U, the self-cleavage came to 0.208.

As for G17C G55C, the self-cleavage came to 0.262.

With G17C G55A, the self-cleavage worked out at 0.402.

Consider G17A C85G, for which the self-cleavage came out at 0.814.

As for G17A C85U, the self-cleavage turned out to be 0.641.

G17C C61U: the self-cleavage was 0.383.

On to G17C U69A, for which the self-cleavage came to 0.453.

Consider G17C U69C, for which the self-cleavage is 0.269.

Consider G17C U69G, for which the self-cleavage amounted to 0.317.

With G17A U47C, the self-cleavage stood at 0.587.

For the variant G17A U47A, the self-cleavage was found to be 0.554.

Take G17C C58U: the self-cleavage came out at 0.302.

As to G17C C58G, the self-cleavage is 0.32.

With A16U G73U, the self-cleavage amounted to 0.237.

On to G17A G35A, for which the self-cleavage came to 0.205.

For the variant G17U C64A, the self-cleavage amounted to 0.601.

Turning to G17A G55C, the self-cleavage was found to be 0.742.

With G17A C19U, the self-cleavage was 0.119.

In the case of G17C C86U, the self-cleavage amounted to 0.237.

With A16U G82C, the self-cleavage worked out at 0.256.

A16U G82A: the self-cleavage worked out at 0.745.

For A16U G82U, the self-cleavage is 1.06.

For G17A U23A, the self-cleavage is 0.686.

Take G17C U37A: the self-cleavage turned out to be 0.

As for G17C U37G, the self-cleavage was 0.

G17C U37C: the self-cleavage was 0.344.

Regarding G17U C32U, the self-cleavage turned out to be 0.125.

Take G17A G73C: the self-cleavage was found to be 0.0615.

For the variant G17A G31U, the self-cleavage turned out to be 0.102.

With G17A G31C, the self-cleavage came to 0.188.

For the variant A16U C41U, the self-cleavage is 0.997.

For A16U C30A, the self-cleavage is 0.201.

In the case of A16U G40U, the self-cleavage is 0.964.

Take A16U G38C: the self-cleavage turned out to be 0.

As for G17U C57U, the self-cleavage was found to be 0.415.

For G17U C57G, the self-cleavage amounted to 0.464.

Take G17A C33G: the self-cleavage was 0.0369.

As to G17A C33A, the self-cleavage was determined as 0.0875.

In the case of G17A C18G, the self-cleavage was 0.095.

In the case of G17C G28A, the self-cleavage was 0.0449.

Take A16U G59U: the self-cleavage worked out at 0.966.

Turning to A16U G59C, the self-cleavage amounted to 0.997.

As for G17A G68U, the self-cleavage was 0.659.

With G17A G68A, the self-cleavage worked out at 0.76.

As to G17U C62A, the self-cleavage is 0.429.

For G17A G29A, the self-cleavage was found to be 0.128.

For G17C G40U, the self-cleavage worked out at 0.196.

With G17C G40A, the self-cleavage is 0.19.

On to G17A A77U, for which the self-cleavage was 0.138.

For the variant A16U G35U, the self-cleavage came out at 0.208.

A16U G35A: the self-cleavage came to 0.342.

As for G17A C24A, the self-cleavage was 0.089.

In the case of G17A C24U, the self-cleavage came to 0.26.

As to A16U C63G, the self-cleavage is 0.831.

Consider G17A A45U, for which the self-cleavage was 0.696.

For G17A A45G, the self-cleavage amounted to 0.755.

As for G17A G53A, the self-cleavage was 1.02.

Consider G17A G53C, for which the self-cleavage was found to be 0.831.

Consider G17A C21A, for which the self-cleavage is 0.0297.

For A16U C49G, the self-cleavage was 0.91.

As to A16U C49A, the self-cleavage stood at 0.895.

As to A16U C49U, the self-cleavage turned out to be 0.918.

G17C G34A: the self-cleavage worked out at 0.102.

Regarding G17C G34U, the self-cleavage was 0.0415.

For the variant A16U C62U, the self-cleavage is 1.04.

On to A16U C62G, for which the self-cleavage came out at 0.575.

For the variant G17U A70C, the self-cleavage was determined as 0.246.

As for G17A G38C, the self-cleavage turned out to be 0.0791.

G17C C18G: the self-cleavage came out at 0.

Turning to G17C C18U, the self-cleavage was 0.0923.

For G17C G81U, the self-cleavage was found to be 0.193.

For G17U A42U, the self-cleavage stood at 0.089.

In the case of G17U A42G, the self-cleavage came to 0.0489.

As for G17U A42C, the self-cleavage worked out at 0.125.

For the variant A16U G80A, the self-cleavage came to 0.812.

With G17A C58U, the self-cleavage was determined as 0.588.

Consider G17C U65C, for which the self-cleavage worked out at 0.529.

With G17C G74C, the self-cleavage is 0.

As for G17C C22G, the self-cleavage amounted to 0.208.

For the variant G17C C22A, the self-cleavage is 0.

As for G17C U46C, the self-cleavage is 0.0791.

For the variant G17C G50C, the self-cleavage stood at 0.324.

As for G17A U27C, the self-cleavage is 0.309.

Regarding G17A U27G, the self-cleavage was 0.485.

As to G17A U27A, the self-cleavage came to 0.609.

In the case of G17U C66U, the self-cleavage is 0.469.

As to G17U C66G, the self-cleavage was 0.464.

As for G17U C66A, the self-cleavage was determined as 0.684.

On to G17C A87G, for which the self-cleavage turned out to be 0.244.

As to G17C A42C, the self-cleavage was 0.0723.

Consider G17C A42U, for which the self-cleavage was 0.158.

On to G17C A42G, for which the self-cleavage turned out to be 0.

For G17C C44G, the self-cleavage was 0.0723.

For the variant G17C C44A, the self-cleavage stood at 0.

G17C A78C: the self-cleavage came to 0.0755.

For G17C A78U, the self-cleavage is 0.18.

As for G17C A78G, the self-cleavage stood at 0.0536.

On to A16U U60A, for which the self-cleavage came to 0.587.

Turning to A16U U60C, the self-cleavage is 0.831.

For G17C A71C, the self-cleavage came out at 0.246.

With G17A A43C, the self-cleavage is 0.0369.

Consider G17C C84A, for which the self-cleavage was determined as 0.231.

Take G17A C62A: the self-cleavage came out at 0.886.

As to G17A C62G, the self-cleavage worked out at 0.633.

G17A G59U: the self-cleavage is 0.852.

Regarding A16U C36A, the self-cleavage came out at 0.0475.

For A16U C36G, the self-cleavage came out at 0.0519.

Regarding G17A C22G, the self-cleavage came to 0.0573.

Regarding G17U C48U, the self-cleavage is 0.458.

As to G17A G50C, the self-cleavage is 0.502.

As for G17A G50U, the self-cleavage was found to be 0.815.

As for G17A G76A, the self-cleavage worked out at 0.787.

Consider G17C G53C, for which the self-cleavage came out at 0.178.

Consider G17C G53U, for which the self-cleavage was determined as 0.298.

Regarding G17C G53A, the self-cleavage is 0.281.

The record behind these values is the RNAGym collection of RNA variant scans (doi:10.7554/elife.80360).
